The values that follow come from article PMC8458377 (Nature Communications, 2021).

Series [1] concerns the molecule itself. Description: crystal structure; sitting drop vapour diffusion at 18 °C; spacegroup P6_(5)22, three copies in the asymmetric unit arranged as two dimer interfaces.
Series [2] concerns the molecule itself. Description: SEC-MALLS; 100-400 µM loaded in 100 µL on Superdex INCREASE 200 10/300 GL in Acetate Buffer (50 mM sodium acetate, 300 mM NaCl, 1 mM TCEP pH 5.0), 1.0 mL/min.
Series [3] concerns the molecule itself. Description: AUC; multispeed sedimentation equilibrium (18,000, 21,000, 26,000 rpm), Acetate Buffer, global fit to a monomer-dimer-tetramer model; constant of: dimer to monomers (KD1-2).
Series [4] concerns the molecule itself. Description: AUC; multispeed sedimentation equilibrium (18,000, 21,000, 26,000 rpm), Acetate Buffer, global fit to a monomer-dimer-tetramer model; constant of: tetramer to dimers (KD2-4).
Series [5] concerns the molecule itself. Kind of series: AUC; sedimentation velocity, 50,000 rpm, 293 K, Acetate Buffer, interference data, 30-181 µM, C(S) analysis.

B1: p18m_AUG1, Ty1 Gag residues M249-N355 (crystallised) (domain or fragment, S. cerevisiae, UniProt P08405 249-355, looked up)
chain: MKILSKSIEKMQSDTQEANDIVTLANLQYNGSTPADAFETKVTNIIDRLNNNGIHINNKVACQLIMRGLSGEYKFLRYTRHRHLNMTVAELFLDIHAIYEEQQGSRN
notes: S. cerevisiae Ty1A (Ty1 Gag), Uniprot P08405, residues M249-N355, starting at the AUG1 methionine; Residues D262 to Q351 are visible in the map; source: E. coli BL21 (DE3), purified (Ni-NTA, carboxypeptidase A digestion, gel filtration)
Regarding B1, the binding result in series [1] was “binds”.

B2: p18m-I269F (p18m_AUG2-I269F) (domain or fragment, S. cerevisiae, UniProt P08405 259-355, looked up)
chain: MQSDTQEANDFVTLANLQYNGSTPADAFETKVTNIIDRLNNNGIHINNKVACQLIMRGLSGEYKFLRYTRHRHLNMTVAELFLDIHAIYEEQQGSRN
notes: S. cerevisiae Ty1A (Ty1 Gag), Uniprot P08405, residues M259-N355 with I269F; source: E. coli BL21 (DE3), purified
On to B2, for which the stoichiometry N (in general, a count of units in the complex or per binding partner) in series [2] came out at 2. Also, the Kd (commonly the constant that tells how readily two partners part at equilibrium) in series [3] is 0.74 µM; in series [4], 45.3 µM.

B3: p18m-F323S (domain or fragment, S. cerevisiae, UniProt P08405 259-355, looked up)
chain: MQSDTQEANDIVTLANLQYNGSTPADAFETKVTNIIDRLNNNGIHINNKVACQLIMRGLSGEYKSLRYTRHRHLNMTVAELFLDIHAIYEEQQGSRN
notes: S. cerevisiae Ty1A (Ty1 Gag), Uniprot P08405, with F323S; also called Dimer-2 interface-mutant p18m-F323S; source: E. coli BL21 (DE3), purified
B3: the “stoichiometry N” value in series [2] came to 2.

B4: Seleno-methionine p18m_AUG2 (crystallised) (domain or fragment, S. cerevisiae, UniProt P08405 259-355, looked up)
chain: MQSDTQEANDIVTLANLQYNGSTPADAFETKVTNIIDRLNNNGIHINNKVACQLIMRGLSGEYKFLRYTRHRHLNMTVAELFLDIHAIYEEQQGSRN
modifications: seleno-methionine substituted
notes: S. cerevisiae Ty1A (Ty1 Gag), Uniprot P08405, residues M259-N355; also called Se-Met p18m_(AUG2); source: E. coli B834 (DE3) in seleno-methionine medium, purified (Ni-NTA, gel filtration in Acetate Buffer)
Take B4: the binding result in series [1] was “binds”.

B5: p18m_AUG2-A273C (domain or fragment, S. cerevisiae, UniProt P08405 259-355, looked up)
chain: MQSDTQEANDIVTLCNLQYNGSTPADAFETKVTNIIDRLNNNGIHINNKVACQLIMRGLSGEYKFLRYTRHRHLNMTVAELFLDIHAIYEEQQGSRN
notes: S. cerevisiae Ty1A (Ty1 Gag), Uniprot P08405, residues M259-N355 with A273C; source: bacterially expressed (E. coli), purified
With B5, the “stoichiometry N” value in series [2] came out at 2.

B6: p18m-A273V (p18m_AUG2-A273V), solution studies (domain or fragment, S. cerevisiae, UniProt P08405 259-355, looked up)
chain: MQSDTQEANDIVTLVNLQYNGSTPADAFETKVTNIIDRLNNNGIHINNKVACQLIMRGLSGEYKFLRYTRHRHLNMTVAELFLDIHAIYEEQQGSRN
notes: S. cerevisiae Ty1A (Ty1 Gag), Uniprot P08405, residues M259-N355 with A273V; Tag removal is described only for the crystallographic sample; source: E. coli BL21 (DE3), purified
For the protein B6, the “stoichiometry N” value in series [5] amounted to 2. Also, the Kd in series [3] was determined as 0.34 µM; in series [4], 51.8 µM.

B7: p18m (p18m_AUG2), Ty1 Gag residues M259-N355 (domain or fragment, S. cerevisiae, UniProt P08405 259-355, looked up)
chain: MQSDTQEANDIVTLANLQYNGSTPADAFETKVTNIIDRLNNNGIHINNKVACQLIMRGLSGEYKFLRYTRHRHLNMTVAELFLDIHAIYEEQQGSRN
notes: S. cerevisiae Ty1A (Ty1 Gag), Uniprot P08405, residues M259-N355, starting at the AUG2 methionine; also called WT p18m; source: E. coli BL21 (DE3), purified (Ni-NTA, gel filtration in Acetate Buffer)
For B7, the “stoichiometry N” value in series [2] turned out to be 2. The values for the Kd in series [3] and in series [4] were 0.73 µM and 43.2 µM, respectively.
